Laboratory results: patent US20070128672A1 (ST VINCENT S HOSPITAL SYDNEY, published 2007)
Like-named read-outs stand apart in the source and are kept apart here.

T1: CEA (UniProt P06731 35-685)
T1 sequence (looked up): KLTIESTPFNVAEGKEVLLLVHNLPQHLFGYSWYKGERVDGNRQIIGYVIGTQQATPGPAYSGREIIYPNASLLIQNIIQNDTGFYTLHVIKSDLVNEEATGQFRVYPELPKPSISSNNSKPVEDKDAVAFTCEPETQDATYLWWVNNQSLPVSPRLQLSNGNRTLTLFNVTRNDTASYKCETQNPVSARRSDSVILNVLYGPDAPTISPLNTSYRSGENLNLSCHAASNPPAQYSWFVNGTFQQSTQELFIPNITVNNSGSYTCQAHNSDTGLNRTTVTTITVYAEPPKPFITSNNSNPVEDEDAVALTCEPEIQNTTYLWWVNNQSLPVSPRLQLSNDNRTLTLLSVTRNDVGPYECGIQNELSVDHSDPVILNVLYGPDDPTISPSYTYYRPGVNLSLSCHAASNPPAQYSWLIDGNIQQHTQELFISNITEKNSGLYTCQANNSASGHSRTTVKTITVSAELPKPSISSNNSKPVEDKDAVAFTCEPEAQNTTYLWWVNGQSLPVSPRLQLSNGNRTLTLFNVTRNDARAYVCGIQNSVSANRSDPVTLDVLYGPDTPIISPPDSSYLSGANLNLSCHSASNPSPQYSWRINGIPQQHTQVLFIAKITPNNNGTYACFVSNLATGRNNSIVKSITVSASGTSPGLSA

B1: Fab clone 163.1 (Fab, V domains shown)
VH: VQLLEQSGAEMKRPGASVTISCQASRQTFSGQYIHWVRQAPGQGLEWMGVINPSGGSANYAPSFQGRLSMSRDASTNTVYMKLSSLTSEDTAVYYCLSQALKYWGQGTLVAVSS
VL: AAELTQSPDSLAVSLGERATINCKSNQSVLYNSNSKNYLAWYQQKPGQPPKLLIYWASTRESGVPDRFSGSGSGTDFTLTITSLQAEDVAVYYCQQYFSSPYTFGQGTKLEIK
notes: myc tag on the C terminus of the heavy chain
B2: Fab clone 1159.8 (Fab, V domains shown)
VH: VQLLESGGGLIQPGRSLRLSCTASGFPFGDSAMTWFRQAPGKGLEWVGFIRSKAYGAATAYAASMKGRVTISRDDAKSIAYLHMSRLKIEDTAVYFCSRVKAGGPDYWGQGTLVTVSS
VL: AAELTQSPLSLPVIPGEPASISCRSSQSLLHRNGYNYLDWYLQKPGQSPQLLIYLGSTRASGVPDRFSGSGSGTDFTLNIRRVEAEDVGVYYCMQGLQTPYTFGEGTKVEIK
notes: Soluble Fab selected by panning on the p53 central domain; detected through the myc tag (9E10)
B3: Fab clone 163.5 (Fab, V domains shown)
VH: VQLLEQSGAEVKRPGASVTISCQASRQDFSGQYIHWVRQAPGQGFEWMGIINPSGGSANYAPKFKGRLTMSRDSSTDTVYMTLTSLTSEDTAVYYCLLQALKHWGQGTLVAVSS
VL: AAELTQSPDSLAVALGERATINCKSSQSVLYSLNNKNYLAWYQQKPGQPPKLLIHWASTRESGVPDRFSGSGSETDFTLTISSLQAEDVAVYYCQQYYTTPYTFGQGTKLEIK
B4: whole anti-p53 antibody from CHO clone C4B4 (antibody, V domains shown)
VH: VQLLEQSGAEVKRPGASVTISCQASRQDFSGQYIHWVRQAPGQGFEWMGIINPSGGSANYAPKFKGRLTMSRDSSTDTVYMTLTSLTSEDTAVYYCLLQALKHWGQGTLVAVSS
VL: AAELTQSPDSLAVALGERATINCKSSQSVLYSLNNKNYLAWYQQKPGQPPKLLIHWASTRESGVPDRFSGSGSETDFTLTISSLQAEDVAVYYCQQYYTTPYTFGQGTKLEIK
notes: also called C4B4G4
B5: Fab clone 163.24 (Fab, V domains shown)
VH: VQLLEQSGAEVKRPGASVTISCQASRQNFSGQYIHWVRQAPGQGLEWMGIINPSGGSANYAPRFKGRLSMSRDSSTDTAYLTLTSLTSEDTAVYFCLLQSLKHWGQGTLVAVSS
VL: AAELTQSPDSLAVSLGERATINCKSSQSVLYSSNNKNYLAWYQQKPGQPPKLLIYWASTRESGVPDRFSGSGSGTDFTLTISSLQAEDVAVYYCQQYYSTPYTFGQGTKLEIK
notes: Human IgG1 kappa Fab (MCO1 vector, soluble from E. coli HB2151), myc tag on the C terminus of the heavy chain
B6: Fab clone 163.17 (Fab, V domains shown)
VH: VQLLEQSGAEVKRPGASVTISCRASRQDFSGQYIHWVRQAPGQGFEWMGIINPSGGSANYAPKFKGRLTMSRDSSTETVYMTLTSLTSEDTAVYYCLLQALKHWGQGTLVGPSS
VL: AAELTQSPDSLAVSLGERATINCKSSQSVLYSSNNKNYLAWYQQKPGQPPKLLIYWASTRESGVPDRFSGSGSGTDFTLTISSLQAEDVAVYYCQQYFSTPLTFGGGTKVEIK
notes: as for B5

What was measured:
[1] = molecular target: T2, p53 central domain (residues 95-298) (UniProt P04637 95-298); assay: immunoblot of purified central domain, Fab bacterial supernatant
T2 construct: range 95-298; Carries the vector's tag (purified as whole p53 on Ni2+ resin); also called central domain of p53
T2 sequence (P04637 95-298 limits assumed): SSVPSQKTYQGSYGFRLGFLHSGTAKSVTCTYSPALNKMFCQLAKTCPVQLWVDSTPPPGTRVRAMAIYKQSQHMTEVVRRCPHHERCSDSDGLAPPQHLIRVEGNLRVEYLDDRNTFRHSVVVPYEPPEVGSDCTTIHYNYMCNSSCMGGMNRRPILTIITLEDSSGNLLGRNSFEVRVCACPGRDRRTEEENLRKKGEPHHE

[2] = molecular target: T3, p53 deletion construct 18 (residues 44-393) (human, UniProt P04637 44-393); assay: immunoblot of E. coli lysates, Fab detected with 9E10 and HRP goat anti-mouse
T3 construct: In E. coli lysate on an immunoblot; also called the 18 construct
T3 sequence (P04637 44-393 limits assumed, stated change not applied): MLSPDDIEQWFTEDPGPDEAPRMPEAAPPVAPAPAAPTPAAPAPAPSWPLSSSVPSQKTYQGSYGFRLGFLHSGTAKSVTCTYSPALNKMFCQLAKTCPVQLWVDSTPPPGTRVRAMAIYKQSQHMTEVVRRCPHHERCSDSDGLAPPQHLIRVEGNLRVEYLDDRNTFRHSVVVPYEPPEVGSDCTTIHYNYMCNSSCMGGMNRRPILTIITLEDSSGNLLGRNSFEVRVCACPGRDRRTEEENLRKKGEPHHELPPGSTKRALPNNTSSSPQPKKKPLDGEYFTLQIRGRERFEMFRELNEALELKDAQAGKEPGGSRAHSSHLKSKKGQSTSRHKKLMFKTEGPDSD

[3] = molecular target: T4, recombinant p53 (wild type, whole protein) (UniProt P04637 1-393, limits assumed); assay: SPR (BIAcore), p53 amine-coupled to a CM5 chip, Fab 10-200 nM injected, global fit, 1:1 model with drifting baseline
T4 construct: mature; Also tested unpurified in bacterial lysates; also called whole p53; full length p53
T4 sequence (P04637 whole entry): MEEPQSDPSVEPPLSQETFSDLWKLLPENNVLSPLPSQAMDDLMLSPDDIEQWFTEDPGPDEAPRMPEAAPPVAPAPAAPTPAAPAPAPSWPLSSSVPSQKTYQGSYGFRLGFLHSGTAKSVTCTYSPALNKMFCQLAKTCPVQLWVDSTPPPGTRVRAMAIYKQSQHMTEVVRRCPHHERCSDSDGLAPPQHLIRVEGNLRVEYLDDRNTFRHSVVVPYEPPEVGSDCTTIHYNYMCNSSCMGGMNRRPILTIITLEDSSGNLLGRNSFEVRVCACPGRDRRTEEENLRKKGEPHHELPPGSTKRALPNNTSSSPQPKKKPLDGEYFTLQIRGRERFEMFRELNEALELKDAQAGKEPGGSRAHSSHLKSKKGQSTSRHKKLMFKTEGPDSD

bovine serum albumin [4] = molecular target: T5, bovine serum albumin (bovine, UniProt P02769 25-607); assay: ELISA, crude Fab supernatant, detected with 9E10
T5 construct: also called BSA
T5 sequence (P02769 25-607 limits assumed): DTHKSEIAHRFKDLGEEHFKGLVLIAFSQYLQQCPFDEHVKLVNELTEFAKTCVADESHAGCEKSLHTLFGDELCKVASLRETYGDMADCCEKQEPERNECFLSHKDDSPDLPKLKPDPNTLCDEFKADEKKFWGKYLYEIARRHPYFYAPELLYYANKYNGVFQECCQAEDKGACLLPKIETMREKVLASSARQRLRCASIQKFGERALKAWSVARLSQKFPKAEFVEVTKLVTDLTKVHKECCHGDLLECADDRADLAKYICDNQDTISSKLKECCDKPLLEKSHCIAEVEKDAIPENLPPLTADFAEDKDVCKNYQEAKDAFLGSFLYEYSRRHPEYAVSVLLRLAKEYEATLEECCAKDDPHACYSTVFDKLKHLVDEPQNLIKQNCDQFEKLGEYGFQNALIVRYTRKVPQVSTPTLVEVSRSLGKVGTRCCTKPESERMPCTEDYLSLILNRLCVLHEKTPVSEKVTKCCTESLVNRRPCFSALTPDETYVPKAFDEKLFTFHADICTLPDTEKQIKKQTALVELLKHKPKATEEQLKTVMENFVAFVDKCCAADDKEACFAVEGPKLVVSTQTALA

CEA = molecular target: T1, CEA; assay: ELISA, crude Fab supernatant, detected with 9E10
[5] = molecular target: T6, ErbB2 extracellular domain (UniProt P04626 23-652, limits assumed); assay: ELISA, crude Fab supernatant, detected with 9E10
T6 construct: extracellular domain

[6] = molecular target: T2, p53 central domain (residues 95-298); assay: ELISA, soluble Fab, detected with 9E10 and AP goat anti-mouse
[7] = molecular target: T4, recombinant p53 (wild type, whole …); assay: as above
bovine serum albumin [8] = molecular target: T5, bovine serum albumin; assay: cross reactivity ELISA, Fab detected with 9E10 and AP goat anti-mouse
[9] = molecular target: T4, recombinant p53 (wild type, whole …)
[10] = molecular target: T2, p53 central domain (residues 95-298); assay: ELISA, detected with HRP goat anti-human
[11] = molecular target: T7, p53 carboxy terminal domain (residues 283-393) (UniProt P04637 283-393); assay: ELISA, detected with HRP goat anti-human
T7 construct: Carries the vector's tag; also called C-terminal domain; carboxy terminal domain of the p53
T7 sequence (P04637 283-393 limits assumed): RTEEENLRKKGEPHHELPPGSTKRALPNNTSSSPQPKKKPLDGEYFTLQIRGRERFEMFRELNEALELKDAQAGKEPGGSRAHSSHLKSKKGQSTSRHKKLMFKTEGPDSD

bovine serum albumin [12] = molecular target: T5, bovine serum albumin; assay: cross reactivity ELISA, purified antibody, HRP goat anti-human
hen egg white lysozyme = hen egg white lysozyme (hen, UniProt P00698 19-147); assay: as above
Chain of hen egg white lysozyme (P00698 19-147): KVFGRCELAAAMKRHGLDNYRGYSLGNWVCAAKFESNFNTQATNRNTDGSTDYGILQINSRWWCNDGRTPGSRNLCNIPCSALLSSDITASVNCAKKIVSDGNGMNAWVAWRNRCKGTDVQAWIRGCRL

| Binder | binding result [2] | Kd [3] [nM] | binding result (bovine serum albumin [4]) | binding result (CEA) | binding result [5] | further results |
| --- | --- | --- | --- | --- | --- | --- |
| B1 | no binding | 11.9 | no binding (tested: antigen coated at 1 µg/ml) | no binding (tested: antigen coated at 5 µg/ml) | no binding (tested: antigen coated at 5 µg/ml) | binding result [1]: no binding |
| B2 | – | – | – | – | – | binding result [6]: binds; binding result [7]: binds; binding result (bovine serum albumin [8]): no binding (tested: antigen coated at 1 µg/ml) |
| B3 | no binding | – | no binding (tested: antigen coated at 1 µg/ml) | no binding (tested: antigen coated at 5 µg/ml) | no binding (tested: antigen coated at 5 µg/ml) | Kd [9]: 15 nM |
| B4 | – | – | – | – | – | binding result [10]: no binding (tested: antigen coated at 2 µg/ml); binding result [11]: no binding (tested: antigen coated at 2 µg/ml); binding result (bovine serum albumin [12]): no binding (tested: antigen coated at 20 µg/ml); binding result (hen egg white lysozyme): no binding (tested: antigen coated at 10 µg/ml) |
| B5 | no binding | 13.8 | no binding (tested: antigen coated at 1 µg/ml) | no binding (tested: antigen coated at 5 µg/ml) | no binding (tested: antigen coated at 5 µg/ml) | – |
| B6 | no binding | 15.7 | no binding (tested: antigen coated at 1 µg/ml) | no binding (tested: antigen coated at 5 µg/ml) | no binding (tested: antigen coated at 5 µg/ml) | – |
